Laboratory results taken from patent US20200299347A1 (Merck KGaA, published 2020).

B1: FGF18 SEED fasinumab (SEED-A) (other)
chain: EENVDFRIHVENQTRARDDVSRKQLRLYQLYSRTSGKHIQVLGRRISARGEDGDKYAQLLVETDTFGSQVRIKGKETEFYLCMNRKGKLVGKPDGTSKECVFIEKVLENNYTALMSAKYSGWYVGFTKKGRPRKGPKTRENQQDVHFMKRYPKGQPELQKPFKYTTVTKGGGGSGGGGSDKTHTCPPCPAPEAAGGPSVFLFPPKPKDTLMISRTPEVTCVVVDVSHEDPEVKFNWYVDGVEVHNAKTKPREEQYNSTYRVVSVLTVLHQDWLNGKEYKCKVSNKALPAPIEKTISKAKGQPFRPEVHLLPPSREEMTKNQVSLTCLARGFYPKDIAVEWESNGQPENNYKTTPSRQEPSQGTTTFAVTSKLTVDKSRWQQGNVFSCSVMHEALHNHYTQKTISLSPGK
heavy: QVQLVQSGAEVKKPGASVKVSCKVSGFTLTELSIHWVRQAPGKGLEWMGGFDPEDGETIYAQKFQGRVTMTEDTSTDTAYMELTSLRSEDTAVYYCSTIFGVVTNFDNWGQGTLVTVSSASTKGPSVFPLAPSSKSTSGGTAALGCLVKDYFPEPVTVSWNSGALTSGVHTFPAVLQSSGLYSLSSVVTVPSSSLGTQTYICNVNHKPSNTKVDKKVEPKSCDKTHTCPPCPAPEAAGGPSVFLFPPKPKDTLMISRTPEVTCVVVDVSHEDPEVKFNWYVDGVEVHNAKTKPREEQYNSTYRVVSVLTVLHQDWLNGKEYKCKVSNKALPAPIEKTISKAKGQPREPQVYTLPPPSEELALNELVTLTCLVKGFYPSDIAVEWLQGSQELPREKYLTWAPVLDSDGSFFLYSILRVAAEDWKKGDTFSCSVMHEALHNRFTQKSLDRSPGK
light: DIQMTQSPSSLSASAGDRVTITCRASQAIRNDLGWYQQKPGKAPKRLIYAAFNLQSGVPSRFSGSGSGTEFTLTISSLQPEDLASYYCQQYNRYPWTFGQGTKVEIKRTVAAPSVFIFPPSDEQLKSGTASVVCLLNNFYPREAKVQWKVDNALQSGNSQESVTEQDSKDSTYSLSSTLTLSKADYEKHKVYACEVTHQGLSSPVTKSFNRGEC
B2: FGF18 SEED fulranumab (SEED-B) (other)
chain: B1 chain
heavy: EVQLVESGGGLVQPGGSLRLSCAASGFTLRSYSMNWVRQAPGKGLEWVSYISRSSHTIFYADSVKGRFTISRDNAKNSLYLQMDSLRDEDTAMYYCARVYSSGWHVSDYFDYWGQGILVTVSSASTKGPSVFPLAPSSKSTSGGTAALGCLVKDYFPEPVTVSWNSGALTSGVHTFPAVLQSSGLYSLSSVVTVPSSSLGTQTYICNVNHKPSNTKVDKKVEPKSCDKTHTCPPCPAPEAAGGPSVFLFPPKPKDTLMISRTPEVTCVVVDVSHEDPEVKFNWYVDGVEVHNAKTKPREEQYNSTYRVVSVLTVLHQDWLNGKEYKCKVSNKALPAPIEKTISKAKGQPREPQVYTLPPPSEELALNELVTLTCLVKGFYPSDIAVEWLQGSQELPREKYLTWAPVLDSDGSFFLYSILRVAAEDWKKGDTFSCSVMHEALHNRFTQKSLDRSPGK
light: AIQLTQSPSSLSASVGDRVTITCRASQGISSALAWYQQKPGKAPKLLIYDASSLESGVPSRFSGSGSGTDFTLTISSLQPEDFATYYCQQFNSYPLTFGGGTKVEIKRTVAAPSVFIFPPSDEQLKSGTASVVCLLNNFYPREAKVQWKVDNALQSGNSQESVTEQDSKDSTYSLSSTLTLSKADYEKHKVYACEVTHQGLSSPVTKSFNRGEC

Tests used:
NGF = experiment: cell-based or functional assay
Sequence of NGF (P01138 122-241): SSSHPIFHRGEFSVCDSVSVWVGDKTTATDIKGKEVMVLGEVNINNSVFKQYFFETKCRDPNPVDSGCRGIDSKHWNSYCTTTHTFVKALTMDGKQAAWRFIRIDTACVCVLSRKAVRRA

FGFR3 = experiment: cell-based or functional assay

Binder	anti-NGF IC50 (nM), U2OS TrkA_p75 assay; construct from expiCHO-S (NGF)	FGF18 EC50 (nM), BaF3/FGFR3 assay; construct from expiCHO-S (FGFR3)
B1	0.29 nM	0.14 nM
B2	0.25 nM	0.06 nM
